Assay results from PMC6982540.

Biological target: His-PTP1B (residues 1–321), reversibly oxidized and phosphorylated on Ser50 (UniProt P18031)
Assay: SPR

Chain of UniProt P18031 (P18031 1-321): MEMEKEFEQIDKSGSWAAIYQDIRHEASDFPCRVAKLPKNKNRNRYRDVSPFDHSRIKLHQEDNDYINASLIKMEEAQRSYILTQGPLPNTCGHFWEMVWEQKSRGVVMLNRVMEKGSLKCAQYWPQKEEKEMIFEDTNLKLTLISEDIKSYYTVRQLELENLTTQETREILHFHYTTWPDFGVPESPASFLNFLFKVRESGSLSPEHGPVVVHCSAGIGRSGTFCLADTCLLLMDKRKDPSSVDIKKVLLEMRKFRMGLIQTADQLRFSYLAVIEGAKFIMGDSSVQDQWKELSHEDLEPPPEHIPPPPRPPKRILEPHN

- koff: 0.00458 s⁻¹
Substance: GST-14-3-3-ζ (from UniProt P63104 1-245) (natural protein)
